# Reference: patent publication US20230203146A1 (Boehringer Ingelheim, published 2023)
# Where a chain is given by its changes, count along the chain named. Where two headings read alike, the source gives them in different places.
# T1: N-terminally FLAG-tagged mouse Ang2 (HEK293T conditioned medium) (mouse, UniProt O35608 19-496)
# T1 construct: may be a nucleotide entry; also called mAng2; FLAG-mAng2
# T1 sequence: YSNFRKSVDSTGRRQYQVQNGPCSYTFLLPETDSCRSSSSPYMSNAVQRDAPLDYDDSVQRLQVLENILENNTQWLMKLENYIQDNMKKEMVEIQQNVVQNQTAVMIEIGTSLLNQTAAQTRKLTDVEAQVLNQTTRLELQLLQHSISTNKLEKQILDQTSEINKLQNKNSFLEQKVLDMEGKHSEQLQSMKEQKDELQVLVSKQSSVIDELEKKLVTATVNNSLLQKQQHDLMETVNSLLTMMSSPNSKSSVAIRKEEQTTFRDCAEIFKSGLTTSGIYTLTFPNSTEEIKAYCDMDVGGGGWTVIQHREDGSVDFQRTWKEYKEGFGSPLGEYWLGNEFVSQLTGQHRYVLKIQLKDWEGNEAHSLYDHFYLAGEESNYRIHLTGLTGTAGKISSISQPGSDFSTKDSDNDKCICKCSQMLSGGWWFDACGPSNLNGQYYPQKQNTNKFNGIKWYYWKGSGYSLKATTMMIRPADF
# T2: N-terminally FLAG-tagged cynomolgus Ang2 (HEK293T conditioned medium) (cynomolgus, UniProt O15123 19-496 (human entry), limits assumed)
# T2 construct: may be a nucleotide entry; also called cAng2; FLAG-cAng2
# T2 chain: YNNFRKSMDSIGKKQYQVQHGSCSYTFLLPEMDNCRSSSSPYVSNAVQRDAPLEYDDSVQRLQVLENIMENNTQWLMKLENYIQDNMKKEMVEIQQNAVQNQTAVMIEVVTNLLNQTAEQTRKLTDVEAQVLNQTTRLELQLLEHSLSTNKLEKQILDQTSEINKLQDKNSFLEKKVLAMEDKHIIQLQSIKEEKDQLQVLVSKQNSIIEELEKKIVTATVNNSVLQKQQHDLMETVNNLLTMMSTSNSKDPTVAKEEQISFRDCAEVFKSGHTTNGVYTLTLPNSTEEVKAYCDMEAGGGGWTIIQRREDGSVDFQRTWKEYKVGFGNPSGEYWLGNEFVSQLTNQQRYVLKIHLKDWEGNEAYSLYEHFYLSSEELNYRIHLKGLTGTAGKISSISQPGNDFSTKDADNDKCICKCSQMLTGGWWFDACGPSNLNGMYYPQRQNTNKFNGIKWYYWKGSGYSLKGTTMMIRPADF
# T3: recombinant human Ang2-FLD (human, UniProt O15123 275-496, limits assumed)
# T3 construct: domain: FLD; not used
# T3 sequence (looked up): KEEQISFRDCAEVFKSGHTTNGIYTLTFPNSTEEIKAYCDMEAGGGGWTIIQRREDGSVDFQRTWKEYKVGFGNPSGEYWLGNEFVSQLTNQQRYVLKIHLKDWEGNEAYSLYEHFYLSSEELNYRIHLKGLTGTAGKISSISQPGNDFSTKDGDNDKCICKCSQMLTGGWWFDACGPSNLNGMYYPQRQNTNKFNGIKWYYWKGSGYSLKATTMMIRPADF
# T4: recombinant mouse Ang2-FLD (mouse, UniProt O35608 275-496, limits assumed)
# T4 construct: domain: FLD
# T4 sequence (looked up): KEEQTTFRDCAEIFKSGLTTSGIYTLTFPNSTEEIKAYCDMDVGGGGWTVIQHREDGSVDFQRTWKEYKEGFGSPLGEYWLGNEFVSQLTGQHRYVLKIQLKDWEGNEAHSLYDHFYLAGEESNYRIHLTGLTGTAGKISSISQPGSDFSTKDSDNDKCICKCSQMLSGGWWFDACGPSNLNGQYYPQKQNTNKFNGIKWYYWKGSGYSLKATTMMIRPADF
# T5: FLAG-tagged cynomolgus Ang2 (cynomolgus, UniProt O15123 19-496 (human entry), limits assumed)
# T5 construct: N-terminally FLAG-tagged, conditioned medium of HEK293T cells; also called cAng2; FLAG-cAng2
# T5 chain: T2 chain
# T6: FLAG-tagged mouse Ang2 (mouse, UniProt O35608 19-496)
# T6 construct: N-terminally FLAG-tagged, conditioned medium of HEK293T cells; also called mAng2; FLAG-mAng2
# T6 sequence: T1 sequence
# B1: VHH 13A02 (VHH)
# VHH: EVQLVESGGGLVQAGGSLRLSCAASGGTFSSYSMGWFRQAPGKEREFIAAINWNGDSTYYEDSVKGRFTVSRDNAKNTVYLQMNSLKPEDTAVYYCAATGWGRAYEQAYEYDVWGQGTQVTVSS
# notes: also called 013A02; not shown: C-terminal c-myc tag and His6 tag
# B2: VHH 22G11 (VHH)
# VHH: EVQLVESGGGLVQAGGSLRLSCAVSGFTFDDYAIGWFRQAPGKEREGVSCISRSDGSPYYADSVKGRFTISSDNAKGTVYLQMSSLKPEDTAVYYCAASWSGAYYSGTYYCDRLYEYDAWGQGTQVTVSS
# notes: Tested as periplasmic extract; also called 022G11; not shown: C-terminal c-myc tag and His6 tag
# B3: VHH 32H10 (VHH)
# VHH: EVQLVESGGGLVQAGGSLRLSCAASGFDFEDYDMGWFRQAPGKEREGVSYISSSDGSTYYTDSVKGRFTISSDNAKNTVYLQMNSLIPEDTAVYYCAARPWTRRVYGSSWLARSLDEYEYDYWGQGTQVTVSS
# notes: also called 032H10; not shown: C-terminal c-myc tag and His6 tag
# B4: VHH 22C07 (VHH)
# VHH: EVQLVESGGGLVQAGGSLRLSCAASGFTFDDYAIGWFRQAPGKEREGVSCISSSDGSTYYADSVKGRFTISSDNAKNTVYLQMNSLKPEDTAVYYCAADFIISSKRLCLDLFGSRGQGTQVTVSS
# notes: also called 022C07; not shown: C-terminal c-myc tag and His6 tag
# B5: VHH 24B05 (VHH)
# VHH: EVQLVESGGGLVQPGGSLRLSCAASGFTLDYYAIGWFRQAPGKEWEGVSCISSSDGSTYYADSVKGRFTISRDNAKNTVYLQMNSLKPEDTAVYYCATDSIVCGSYYGMDYWGKGTQVTVSS
# notes: also called 024B05; not shown: C-terminal c-myc tag and His6 tag
# B6: VHH 8A11 (VHH)
# VHH: EVQLVESGGGLVQAGGSLRLSCAASGRTFSSYAMGWFRQAPGKELEFVTAVSWSGGSTYYADSVKGRFTISRDSAKNTVYLQMNSLKPEDTAVYYCAAQSTIVEVTTLEAYDYWGQGTQVTVSS
# notes: also called 008A11; not shown: C-terminal c-myc tag and His6 tag
# B7: VHH 00920 (VHH, not shown: small tags and cut ends)
# VHH: EVQLVESGGGLVQPGGSLRLSCAASGFALDYYAIGWFRQAPGKEREGVSCISSSGGITYYADSVKGRFTISRDNSKNTVYLQMNSLRPEDTAVYYCATDSGGYIDYDCMGLGYDYWGQGTLVTVSS
# B8: VHH 00927 (VHH, not shown: small tags and cut ends)
# VHH: B7 VHH with M109R
# B9: VHH 00930 (VHH, not shown: small tags and cut ends)
# VHH: B7 VHH with D99E, M109R
# B10: VHH 00926 (VHH, not shown: small tags and cut ends)
# VHH: B7 VHH with M109Q
# B11: VHH 00931 (VHH, not shown: small tags and cut ends)
# VHH: B7 VHH with D99E, M109S
# B12: VHH 00929 (VHH, not shown: small tags and cut ends)
# VHH: B7 VHH with D99E, M109Q
# B13: VHH 25F01 (VHH)
# VHH: EVQLVESGGGLVQAGGSLRLSCAVSGLPFDDYVIGWFRQAPGKEREGVSCISSSDGSTYYADSVKGRFTISSDNAKNTVYLQMNSLKPEDTAAYYCAAGGPRINIATMTCSHDEYEYDYWGQGTQVTVSS
# notes: also called 025F01; not shown: C-terminal c-myc tag and His6 tag
# B14: VHH 11B07 (VHH)
# VHH: EVQLVESGGGLVQVGDSLRLSCAASGRTFSTYLMVGWFRQAPGKEREFAAGIWSSGDTAYADSVRGRFTISRDNAKNTVYLQMNSLKTEDTAVYYCAGSYDGNYYIPGFYKDWGQGTQVTVSS
# notes: also called 011B07; not shown: C-terminal c-myc tag and His6 tag
# B15: VHH 15H04 (VHH)
# VHH: EVQLVESGGGLVQAGGSLGLSCAASERTLPSYVMGWFRQAPGKELEFVAGISWSSGRTYYTDSVKGRFTISRDAAENTWYLQMNSLKPEDTAVYYCASNSVSEPTLHTWQYEASYDYWGQGTQVTVSS
# notes: also called 015H04; not shown: C-terminal c-myc tag and His6 tag
# Legend:
# [1] = target: T1, N-terminally FLAG-tagged mouse Ang2 …; assay: competition ELISA, FLAG-mAng2 on coated mTie2-Fc
# Method: (§1) In brief, 2 μg/mL of recombinant mouse Tie2-Fc or cyno Tie2-Fc is coated overnight at 4° C. in a 96-well MaxiSorp plate (Nunc, Wiesbaden, Germany). Coated wells are blocked with a 1% casein solution.
# [2] = target: T2, N-terminally FLAG-tagged cynomolgus …; assay: competition ELISA, FLAG-cAng2 on coated cTie2-Fc
# Method: as §1
# [3] = target: T1, N-terminally FLAG-tagged mouse Ang2 …; assay: competition ELISA, FLAG-mAng2 on coated mTie2-Fc; remark: listed apart in the source
# Method: as §1
# [4] = target: T7, recombinant cynomolgus Ang2-FLD (cynomolgus); assay: SPR (Biacore T100), binder on CM5 chip, Ang2-FLD as analyte
# T7 construct: domain: FLD; also called cyno Ang2-FLD
# Method: (§2) In brief, VHH and benchmark compounds are immobilized on a CM5 chip via amine coupling. […] Ang2-FLD species are allowed to associate for 2 min and to dissociate for 20 min at a flow rate of 45 μL/min. In between injections, the surfaces are regenerated with a 10 sec pulse of 25 mM NaOH and 60 sec stabilization period. Association/dissociation data are evaluated by fitting a 1:1 interaction model (Langmuir binding). The affinity constant KD is calculated from resulting association and dissociation rate constants kₐ and kd and are depicted in Table 8.
# [5] = target: T3, recombinant human Ang2-FLD; assay: as above
# Method: as §2
# [6] = target: T4, recombinant mouse Ang2-FLD; assay: as above
# Method: as §2
# [7] = target: T1, N-terminally FLAG-tagged mouse Ang2 …; assay: competition ELISA, periplasmic extract, FLAG-mAng2 on mTie2/Fc
# Method: In brief, human Tie2/Fc chimera (R&D Systems, Minneapolis, Minn., USA) is biotinylated using N-hydroxysulfosuccinimide ester of biotin (Thermo Fisher Scientific, Rockford, Ill., USA). […] To this mixture, the Acceptor beads and 0.3 nM biotinylated human Tie2/Fc chimeras are added and further incubated for 2 hours at room temperature. Finally, streptavidin conjugated Donor beads (Perkin Elmer, Waltham, Mass., US) are added and the mixture is incubated for an additional 2 hours at room temperature. Assay buffer is PBS+0.03% Tween-20+0.1% BSA. Fluorescence is measured using the Envision Multilabel Plate reader (Perkin Elmer, Waltham, Mass., USA) using an excitation wavelength of 680 nm and an emission wavelength of 520 nm. […] In brief, human or mouse Tie2/Fc chimera (R&D Systems, Minneapolis, Minn., USA) are immobilized at 2 μg/mL overnight at 4° C. in a 96-well MaxiSorp plate (Nunc, Wiesbaden, Germany). Wells are blocked with a 1% casein solution. […] This mixture is added to the Tie2/Fc coated well and incubated for 2 hours at room temperature. Residual binding of Ang is detected using HRP-conjugated anti-FLAG M2 antibody (Sigma, St Louis, Mo., USA).
# [8] = target: T5, FLAG-tagged cynomolgus Ang2; assay: competition ELISA: FLAG-cAng2 binding to coated cTie2-Fc
# Method: as §1
# FLAG-tagged mouse Ang2 = target: T6, FLAG-tagged mouse Ang2; assay: competition ELISA: FLAG-mAng2 binding to coated mTie2-Fc
# Method: as §1
binder,measurement,setting,value
B1,IC50,[1],6.1 nM
same,IC50,[2],33.1 nM
same,IC50,[3],26.6 nM
same,Kd,[4],8.7 nM
same,koff,[4],0.094 s⁻¹
same,kon,[4],1.1e+07 M⁻¹ s⁻¹
same,Kd,[5],9.9 nM
same,koff,[5],0.091 s⁻¹
same,kon,[5],9.2e+06 M⁻¹ s⁻¹
same,Kd,[6],18 nM
same,koff,[6],0.034 s⁻¹
same,kon,[6],1.9e+06 M⁻¹ s⁻¹
same,% inh,[7],97%
B2,% inh,[7],98%
B3,IC50,[3],13 nM
same,% inh,[7],58%
B4,IC50,[1],13.6 nM
same,% inh,[7],82%
B5,IC50,[1],1.5 nM
same,IC50,[2],2.1 nM
same,IC50,[3],1.1 nM
same,Kd,[4],0.59 nM
same,koff,[4],0.0024 s⁻¹
same,kon,[4],4.1e+06 M⁻¹ s⁻¹
same,Kd,[5],0.96 nM
same,koff,[5],0.0025 s⁻¹
same,kon,[5],2.6e+06 M⁻¹ s⁻¹
same,Kd,[6],1.7 nM
same,koff,[6],0.0029 s⁻¹
same,kon,[6],1.7e+06 M⁻¹ s⁻¹
same,% inh,[7],98%
B6,IC50,[1],442 nM
same,% inh,[7],13%
B7,IC50,[8],0.23 nM
same,IC50,FLAG-tagged mouse Ang2,0.15 nM
B8,IC50,[8],0.33 nM
same,IC50,FLAG-tagged mouse Ang2,0.19 nM
B9,IC50,[8],0.31 nM
same,IC50,FLAG-tagged mouse Ang2,0.17 nM
B10,IC50,[8],0.29 nM
same,IC50,FLAG-tagged mouse Ang2,0.2 nM
B11,IC50,[8],0.29 nM
same,IC50,FLAG-tagged mouse Ang2,0.15 nM
B12,IC50,[8],0.25 nM
same,IC50,FLAG-tagged mouse Ang2,0.15 nM
B13,IC50,[1],13.3 nM
same,% inh,[7],42%
B14,IC50,[1],21 nM
same,IC50,[2],24.8 nM
same,IC50,[3],39.7 nM
same,Kd,[4],6.1 nM
same,koff,[4],0.073 s⁻¹
same,kon,[4],1.2e+07 M⁻¹ s⁻¹
same,Kd,[5],6.7 nM
same,koff,[5],0.062 s⁻¹
same,kon,[5],9.2e+06 M⁻¹ s⁻¹
same,Kd,[6],29 nM
same,koff,[6],0.14 s⁻¹
same,kon,[6],4.8e+06 M⁻¹ s⁻¹
B15,IC50,[1],125 nM
same,% inh,[7],38%
